The record followed here is patent US20180118803A1 (Memorial Sloan Kettering, published 2018).

Assay [1] deals with T1, GPRC5D peptide stretch 5CIESTGDYFLLCD17 (N-term) (human).
T1 construct: This is a stretch deduced from array peptides that contain it
T1 peptide: CIESTGDYFLLCD
In words: Pepscan ELISA on peptide arrays, high stringency, 1 ug/ml. On the procedure:
(§1) ELISA Screening—The binding of antibody to each of the synthesized peptides was tested in a PEPSCAN-based ELISA. The peptide arrays were incubated with primary antibody solution (overnight at 4° C.). After washing, the peptide arrays were incubated with a 1/1000 dilution of an appropriate antibody peroxidase conjugate (SBA) for one hour at 25° C. After washing, the peroxidase substrate 2,2′-azino-di-3-ethylbenzthiazoline sulfonate (ABTS) and 2 μl/ml of 3 percent H₂O₂ were added. After one hour, the color development was measured. The color development was quantified with a charge coupled device (CCD)—camera and an image processing system.

The target in assay [2] is T2, GPRC5D peptide stretch 16CDAEGPWGII25 (N-term) (human).
T2 construct: This is a stretch deduced from array peptides that contain it
T2 peptide: CDAEGPWGII
In words: Pepscan ELISA on peptide arrays, moderate stringency, 1 ug/ml. On the procedure:
as §1

Assay [3] concerns the target T3, GPRC5D peptide stretch 229PQFQRQPQW237 (ECL3) (human).
T3 construct: This is a stretch deduced from array peptides that contain it
T3 peptide: PQFQRQPQW
The assay is described as above. On the procedure: as §1

The target in assay [4] is T4, GPRC5D peptides containing sequence 230QFQRQPQWDDPVVC243 (ECL3) (human).
T4 construct: This is a stretch deduced from array peptides that contain it
T4 peptide: QFQRQPQWDDPVVC
In words: Pepscan ELISA, set 1 (linear) compared with set 4 (loop), high stringency, 3 ug/ml.

Assay [5] concerns the target T5, GPRC5D peptide stretch 15LCDAEGPWG23 (N-term) (human).
T5 construct: This is a stretch deduced from array peptides that contain it
T5 peptide: LCDAEGPWG
The assay is described as follows: Pepscan ELISA on peptide arrays, high stringency, 3 ug/ml. The protocol: as §1

B1: ET150-5 mIgG1 (antibody, V domains shown)
VH: EVQLVESGGGLVKPGGSLRLSCAASGFTFSDYYMSWIRQAPGKGLEWVSYISSSGSTIYYADSVKGRFTISRDNAKNSLYLQMNSLRAEDTAVYYCARGYGKAYDQWGQGTLVTVSS
VL: QSVLTQPPSASGTPGQRVTISCSGSRSNVGGNYVFWYQQVPGATPKLLIYRSNQRPSGVPDRFAGSKSGSSASLAISGLRSEDEADYYCATWDDSLSGFVFGTGTKVTVLG
notes: also called ET150-155
As for B1, the binding result in assay [1] is “binds”.

B2: ET150-2 mIgG1 (antibody, V domains shown)
VH: QMQLVQSGAEVKKPGASVKVSCKASGYTFNRYAITWVRQAPGQGLEWMGWISAYNGNSHYAQKLQGRVTMTTDTSTGTAYMELRRLRSDDTAVYYCARMAYDSWGQGTLVTVSS
VL: QSVLTQPASVSGSPGQSLTISCTGTSNDVGAYKYVSWYQQYPGKAPKLILYDVFKRPSGVSNRFSGSKSDNTASLTISGLQAEDEADYYCFSLTSSNTYVFGTGTKVTVLG
notes: also called ET150-152
For the molecule B2, the binding result in assay [2] and in assay [3] was “binds” in each case.

B3: ET150-8 mIgG1 (antibody, V domains shown)
VH: QVQLVESGGGLVHPGGSLRLSCAASGFTFRSHSMNWVRQAPGKGLEWVSSISSDSTYTYYADSVKGRFTISRDNAKNSLYLQMNSLRAEDTAVYYCARSGGQWKYYDYWGQGTLVTVSS
VL: SSELTQDPAVSVALGQTVRITCQGDSLRSYYASWYQQKPGQAPVLVIYGKNNRPSGIPDRFSGSSSGNTASLTITGAQAEDEADYYCNSRDSSGNPPVVFGGGTKLTVLG
notes: also called ET150-158
As for B3, the binding result in assay [4] and in assay [5] was “binds” each time.
